Measurements from patent publication US20060239990A1, “Protein Arginine N-Methyltransferase 2 (PRMT-2)” (priority 2003, published 2006).

Key:
NF-κB = NF-κB luciferase reporter assay in 293T cells; assay type: cell-based, human
Method: Cell culture, transfection, and reporter gene assays. The E1A-transformed, human kidney cell line, 293, and NIH-3T3 cells were maintained in Dulbecco's Modified Eagle Medium (DMEM) supplemented with 10% fetal calf serum and penicillin-streptomycin at 37° C. in 5% carbon dioxide in tissue culture grade Petri dishes. PRMT-2−/− mouse embryo fibroblasts (MEFs) and wild type MEFs were prepared from day 13.5 embryos and maintained in DMEM supplemented with 10% fetal calf serum. MEFs at passage 4 were used in this experiment. Lipofectamine Plus™ reagent (Boehringer Mannheim) was used to transfect both 293 and NIH-3T3 cells according to directions from the manufacturer. […] TNF-α stimulation of cells was done using recombinant TNF-α (200 U/ml) for 12 hours. […] CAT assays were performed essentially as described in Leung, K. & Nabel, G. J. Nature 333, 776-778 (1988). To analyze the κB-reporter activity in MEFs, cells were transfected with the reporter (2×kB-Luc) and PRL-TK vector (Promega) using FuGENE6 transfection reagent (Roche). Luciferase activity was analyzed by Dual-Luciferase Reporter Assay System (Promega).
To map the domains responsible for inhibition of HIV transcription, truncation and point mutations were made in PRMT2 (FIG. 1D) and co-transfected with an NF-κB reporter in 293T cells. PRMT2-A represents an alternatively spliced form of PRMT2 found in the expressed sequence tag (EST) database. This isoform contains the first 218 amino acids of PRMT2 and differs from full length PRMT2 by the absence of the less conserved COOH-terminal domain. PRMT2-N was generated by introducing a stop codon after amino acid 95 before the putative Ado-Met domain of PRMT2. To analyze the role of the Ado-Met domain further, another mutant, PRMT2-4A, was prepared in which 141ILDV144 (SEQ ID NO:5) in this region were altered to four consecutive alanines to compare the effects of point mutations in this highly conserved region.
The mechanism and site of action of PRMT2 in the NF-κB signaling pathway was further defined by co-transfection of PRMT2 and its mutants with different regulators in this pathway with an NF-κB reporter in 293T cells (FIG. 2D).

RB = biological target: T1, RB (Homo sapiens, UniProt P06400); assay: In vitro binding assay with GST-RB; conditions: S35-labeled in vitro translated protein
T1 construct: coding region of RB cDNA was subcloned into pGEX-6P (Amersham/Pharmacia) for generation of GST-RB; made in house
T1 sequence (P06400 1-928): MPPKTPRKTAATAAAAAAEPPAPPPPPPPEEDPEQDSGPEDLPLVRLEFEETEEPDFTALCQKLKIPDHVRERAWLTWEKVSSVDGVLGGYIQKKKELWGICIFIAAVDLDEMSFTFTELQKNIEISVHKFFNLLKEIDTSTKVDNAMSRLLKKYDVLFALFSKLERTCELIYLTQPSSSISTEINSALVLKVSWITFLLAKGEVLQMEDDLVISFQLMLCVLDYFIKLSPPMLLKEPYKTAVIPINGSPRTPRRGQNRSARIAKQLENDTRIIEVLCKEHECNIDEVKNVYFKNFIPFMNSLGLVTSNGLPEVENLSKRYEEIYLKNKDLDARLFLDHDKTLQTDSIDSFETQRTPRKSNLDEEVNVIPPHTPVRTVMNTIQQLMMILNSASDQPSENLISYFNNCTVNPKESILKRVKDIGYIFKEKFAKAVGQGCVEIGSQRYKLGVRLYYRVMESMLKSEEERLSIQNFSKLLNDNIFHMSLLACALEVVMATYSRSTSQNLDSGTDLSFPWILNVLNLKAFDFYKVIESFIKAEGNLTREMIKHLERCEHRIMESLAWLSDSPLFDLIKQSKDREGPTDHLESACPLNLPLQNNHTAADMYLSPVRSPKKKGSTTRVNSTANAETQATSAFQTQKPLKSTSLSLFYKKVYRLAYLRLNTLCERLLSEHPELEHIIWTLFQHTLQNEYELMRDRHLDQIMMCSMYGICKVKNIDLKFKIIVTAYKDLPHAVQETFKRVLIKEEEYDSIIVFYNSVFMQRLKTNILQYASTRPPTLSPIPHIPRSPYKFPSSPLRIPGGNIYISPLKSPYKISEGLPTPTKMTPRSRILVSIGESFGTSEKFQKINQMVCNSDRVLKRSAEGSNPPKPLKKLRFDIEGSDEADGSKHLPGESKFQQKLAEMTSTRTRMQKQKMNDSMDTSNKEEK
Method: The crude cell lysate of the GST-fusion proteins was prepared and purified according to the manufacture's protocol (Amersham/Pharmacia). [^35S]-methionine-labeled protein was produced by in vitro transcription/translation using the TNT T7-coupled reticulocyte lysate system (Promega). [^35S]-methionine-labeled protein and GST-fusion protein bound to glutathione sepharose 4B beads were incubated in 500 μl of HNE buffer (50 mM Hepes, pH 7.8, 150 mM NaCl, 1 mM EDTA, 1 mM DTT, 1% NP40, and 1× protease inhibitor mix (Complete: Roche)) at 4° C. for 1 hour. Beads were washed four times with HNE buffer, and then analyzed on an SDS-PAGE gradient gel (4-15%). For the detection of endogenous PRMT-2 interaction with RB, MEFs were lysed with WCL buffer (50 mM Hepes, pH 7.8, 400 mM NaCl, 2 mM EDTA, 1 mM DTT, 0.2% NP40, 10% Glycerol, 20 mM α-glycerophosphate, 5 mM NaF, 0.1 mM NaVO4, and 1× protease inhibitor mix). Then, 1 mg of whole cell extracts were incubated with HNE buffer without DTT and 3 μg of antibodies as indicated. The immune complexes were isolated using protein G beads, and washed four times with HNE buffer. The precipitated protein was boiled with SDS-loading buffer and resolved on SDS-PAGE. For immunoprecipitation of HA-tagged protein, transfected cells were lysed with RIPA buffer (phosphate buffer saline containing 1% NP40, 0.5% sodium deoxycholate, 0.1% SDS, and 1× Complete), and 100 μg of whole cell lysates were immunoprecipitated with anti-HA antibodies and washed in RIPA buffer. Western blot analysis was performed as described in Tanner et al. (1998). Circ Res, 82, 396-403.
To test whether PRMT family members interact with RB, S^35-labeled in vitro translated PRMT1, PRMT2, PRMT3, and PRMT4 (CARM1) were incubated with GST-RB fusion proteins or control GST, and co-precipitated labeled proteins were resolved by SDS-PAGE. […] An equal amount of GST-RB and GST were loaded in each lane, verified by Coomassie staining (FIG. 8B).

B1: PRMT2: human PRMT-2 polypeptide, SEQ ID NO:2, expressed from pVR1012 vector with HA-tag (protein, listed as Homo sapiens)
chain: MATSGDCPRSESQGEEPAECSEAGLLQEGVQPEEFVAIADYAATDETQLSFLRGEKILILRQTTADWWWGERAGCCGYIPANHVGKHVDEYDPEDTWQDEEYFGSYGTLKLHLEMLADQPRTTKYHSVILQNKESLTDKVILDVGCGTGIISLFCAHYARPRAVYAVEASEMAQHTGQLVLQNGFADIITVYQQKVEDVVLPEKVDVLVSEWMGTCLLFEFMIESILYARDAWLKEDGVIWPTMAALHLVPCSADKDYRSKVLFWDNAYEFNLSALKSLAVKEFFSKPKYNHILKPEDCLSEPCTILQLDMRTVQISDLETLRGELRFDIRKAGTLHGFTAWFSVHFQSLQEGQPPQVLSTGPFHPTTHWKQTLFMMDDPVPVHTGDVVTGSVVLQRNPVWRRHMSVALSWAVTSRQDPTSQKVGEKVFPIWR
modifications: HA tag
NF-κB activity (NF-κB; 1 μg expression construct, 100 ng 5 κB luciferase reporter): inhibited NF-κB activity
IKK2- and p65-induced NF-κB activity (NF-κB; κB luciferase reporter, 48 hrs): inhibited both IKK2- and p65-induced NF-κB activity
binding to RB (RB): directly interacts with RB
